T1: IFIT5 (Homo sapiens, UniProt Q13325 1-482)
T1 sequence: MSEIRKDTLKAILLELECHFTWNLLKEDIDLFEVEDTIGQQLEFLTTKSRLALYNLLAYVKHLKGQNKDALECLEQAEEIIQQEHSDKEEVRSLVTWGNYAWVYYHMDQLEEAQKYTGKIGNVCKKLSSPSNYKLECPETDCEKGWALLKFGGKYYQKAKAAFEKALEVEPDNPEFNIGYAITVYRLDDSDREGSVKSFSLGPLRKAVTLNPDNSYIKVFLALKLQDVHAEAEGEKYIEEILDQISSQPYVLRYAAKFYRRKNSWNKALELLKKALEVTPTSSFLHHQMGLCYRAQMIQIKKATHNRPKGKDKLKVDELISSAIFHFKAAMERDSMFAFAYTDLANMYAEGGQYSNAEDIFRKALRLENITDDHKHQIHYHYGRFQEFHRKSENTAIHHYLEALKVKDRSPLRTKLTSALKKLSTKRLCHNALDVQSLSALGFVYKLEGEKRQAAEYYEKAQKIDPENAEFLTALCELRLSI

T2: IFIT3 (Homo sapiens, UniProt O14879 1-490)
T2 sequence: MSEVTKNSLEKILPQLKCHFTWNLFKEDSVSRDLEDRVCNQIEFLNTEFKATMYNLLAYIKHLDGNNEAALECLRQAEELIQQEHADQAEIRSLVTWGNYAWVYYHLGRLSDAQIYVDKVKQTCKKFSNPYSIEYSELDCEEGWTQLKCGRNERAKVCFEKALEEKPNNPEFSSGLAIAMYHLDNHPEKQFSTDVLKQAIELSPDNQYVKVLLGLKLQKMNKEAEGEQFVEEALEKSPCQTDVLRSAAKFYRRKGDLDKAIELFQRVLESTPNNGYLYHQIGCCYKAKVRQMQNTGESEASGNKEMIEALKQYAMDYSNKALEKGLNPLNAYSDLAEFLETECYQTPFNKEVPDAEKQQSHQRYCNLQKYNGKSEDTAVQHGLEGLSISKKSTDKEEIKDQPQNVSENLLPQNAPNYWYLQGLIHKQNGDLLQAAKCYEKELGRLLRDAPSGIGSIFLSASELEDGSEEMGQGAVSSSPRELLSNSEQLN

T3: IFIT1 (Homo sapiens, UniProt P09914 1-478)
T3 sequence: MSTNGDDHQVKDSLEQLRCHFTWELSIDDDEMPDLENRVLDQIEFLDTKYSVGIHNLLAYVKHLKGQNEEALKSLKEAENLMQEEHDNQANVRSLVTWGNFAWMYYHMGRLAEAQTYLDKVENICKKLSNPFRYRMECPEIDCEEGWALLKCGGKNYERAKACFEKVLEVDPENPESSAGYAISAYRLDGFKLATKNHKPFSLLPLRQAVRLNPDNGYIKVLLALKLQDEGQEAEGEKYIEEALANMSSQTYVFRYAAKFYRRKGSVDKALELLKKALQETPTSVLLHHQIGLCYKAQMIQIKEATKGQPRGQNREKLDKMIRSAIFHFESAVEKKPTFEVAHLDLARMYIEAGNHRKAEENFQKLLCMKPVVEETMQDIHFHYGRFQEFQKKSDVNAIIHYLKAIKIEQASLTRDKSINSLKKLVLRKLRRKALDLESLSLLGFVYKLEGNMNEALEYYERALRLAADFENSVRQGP

B1: PPP-oligo-A (ssRNA)
RNA: AAAA
modifications: 5'-triphosphate
B2: PPP-oligo-C (ssRNA)
RNA: CCCC
modifications: 5'-triphosphate
B3: PPP-3nt (dsRNA)
RNA 1: GGGAGAGAGAGAGAGAGAGUAAGGGCGUCGUCGCCCCGAGAAUU
RNA 2: ACUCUCUCUCUCUCUCU
modifications: 5'-triphosphate on strand 1
B4: PPP-5nt (dsRNA)
RNA 1: B3 RNA 1
RNA 2: ACUCUCUCUCUCUCU
modifications: 5'-triphosphate on strand 1
B5: PPP-ss (44nt PPP-ssRNA) (ssRNA)
RNA: B3 RNA 1
modifications: 5'-triphosphate
B6: PPP-oligo-U (ssRNA)
RNA: UUU
modifications: 5'-triphosphate

Legend:
[1] = target: T1, IFIT5; experiment: crystal structure 2.5 A
[2] = target: T1, IFIT5; experiment: crystal structure 1.86 A
[3] = target: T2, IFIT3; experiment: EMSA
[4] = target: T1, IFIT5; experiment: EMSA
[5] = target: T3, IFIT1; experiment: EMSA
[6] = target: T1, IFIT5; experiment: crystal structure 2.0 A

| Binder | binding result [3] | binding result [4] | binding result [5] | other results |
| --- | --- | --- | --- | --- |
| B1 |  |  |  | binding result [1]: binds |
| B2 |  |  |  | binding result [2]: binds |
| B3 | no binding | binds |  |  |
| B4 |  |  | binds |  |
| B5 | no binding | binds | binds |  |
| B6 |  |  |  | binding result [6]: binds |

Reference: publication PMC4931921
